In patent US20230272086A1 (CHIA TAI TIANQING PHARMACEUTICAL GROUP, published 2023):
Where a chain is given by its changes, count along the chain named.

T1: IL1R9/IL1RAPL2 (Sino biological, 10156-H08H) (UniProt Q9NP60 17-354)
T1 construct: Bought protein
T1 sequence (looked up): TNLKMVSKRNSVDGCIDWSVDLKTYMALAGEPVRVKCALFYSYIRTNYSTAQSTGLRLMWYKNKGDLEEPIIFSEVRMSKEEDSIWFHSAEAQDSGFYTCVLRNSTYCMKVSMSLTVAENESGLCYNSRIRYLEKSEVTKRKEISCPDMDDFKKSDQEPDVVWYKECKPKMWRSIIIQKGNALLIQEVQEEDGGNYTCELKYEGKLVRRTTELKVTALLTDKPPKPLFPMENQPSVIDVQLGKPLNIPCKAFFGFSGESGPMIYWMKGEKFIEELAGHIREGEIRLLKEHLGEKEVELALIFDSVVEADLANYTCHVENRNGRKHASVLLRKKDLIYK

T2: IL1R2/CD121b (Sino biological, 10111-H08H) (UniProt P27930 14-343)
T2 construct: Bought protein
T2 sequence (looked up): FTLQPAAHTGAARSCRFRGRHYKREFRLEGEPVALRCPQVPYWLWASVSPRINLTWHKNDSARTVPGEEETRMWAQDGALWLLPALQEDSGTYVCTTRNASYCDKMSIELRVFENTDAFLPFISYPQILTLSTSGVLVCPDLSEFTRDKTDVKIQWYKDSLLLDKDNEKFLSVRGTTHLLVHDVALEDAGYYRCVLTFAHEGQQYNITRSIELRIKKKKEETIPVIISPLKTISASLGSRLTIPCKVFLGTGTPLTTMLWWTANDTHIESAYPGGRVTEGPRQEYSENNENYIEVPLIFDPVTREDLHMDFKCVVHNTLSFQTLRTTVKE

T3: IL1R1/CD121a (Sino biological, 10126-H08H) (UniProt P14778 18-332)
T3 construct: Bought protein
T3 sequence (looked up): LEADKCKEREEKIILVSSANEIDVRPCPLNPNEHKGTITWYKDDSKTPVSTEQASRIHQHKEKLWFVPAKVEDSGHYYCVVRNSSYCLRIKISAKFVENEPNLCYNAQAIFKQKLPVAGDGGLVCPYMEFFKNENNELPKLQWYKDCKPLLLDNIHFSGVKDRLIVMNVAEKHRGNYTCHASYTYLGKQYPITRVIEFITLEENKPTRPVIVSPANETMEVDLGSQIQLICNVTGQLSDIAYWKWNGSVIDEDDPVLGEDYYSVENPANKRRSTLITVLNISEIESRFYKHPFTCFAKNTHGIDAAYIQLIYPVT

T4: IL1R3/IL1RAP (Sino biological, 10121-H08H) (UniProt Q9NPH3 21-359)
T4 construct: Bought protein
T4 sequence (looked up): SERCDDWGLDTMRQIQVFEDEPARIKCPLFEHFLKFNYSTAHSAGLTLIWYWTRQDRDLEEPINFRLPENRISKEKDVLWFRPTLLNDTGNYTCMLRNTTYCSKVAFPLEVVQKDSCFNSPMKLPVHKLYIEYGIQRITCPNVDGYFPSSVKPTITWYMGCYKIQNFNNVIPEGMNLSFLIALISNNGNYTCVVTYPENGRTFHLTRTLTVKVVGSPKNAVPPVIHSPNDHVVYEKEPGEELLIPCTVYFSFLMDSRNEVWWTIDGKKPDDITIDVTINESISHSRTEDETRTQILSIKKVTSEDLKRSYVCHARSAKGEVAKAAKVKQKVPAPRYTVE

T5: IL1R8/IL1RAPL1 (Sino biological, 10177-H08H) (UniProt Q9NZN1 19-357)
T5 construct: Bought protein
T5 sequence (looked up): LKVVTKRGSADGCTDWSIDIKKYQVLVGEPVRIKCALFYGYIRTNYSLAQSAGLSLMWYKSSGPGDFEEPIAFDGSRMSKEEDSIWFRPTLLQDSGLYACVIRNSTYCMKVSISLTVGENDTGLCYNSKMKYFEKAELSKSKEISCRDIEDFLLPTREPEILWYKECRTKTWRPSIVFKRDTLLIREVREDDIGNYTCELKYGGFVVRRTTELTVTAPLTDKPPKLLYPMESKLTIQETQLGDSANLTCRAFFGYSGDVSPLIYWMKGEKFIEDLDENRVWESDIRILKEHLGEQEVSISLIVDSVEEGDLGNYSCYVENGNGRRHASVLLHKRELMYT

B1: Chimeric 31C8 (antibody, human IgG2, kappa, V domains shown)
VH: QVQLQQSGPELVRPGASVTLSCKASGYIFIDSEMHWVKQTPVHGLEWIGAIDPETGDTVYNQKFKGKATLTADKSSSTASMELSSLTSEDSAVYYCTGSTTDYYFAYWGQGTTLTVSS
VL: DIVMTQAAFSNPVTLGTSASISCRSSKSLLHSNGIIYLYWYLQKPGQSPQLLIYQMSNLASGVPDRFSSSGSGTDFTLRISRVEAEDVGVYYCAQNLELPFTFGSGTKLEIKR
notes: also called xi31C8
B2: RG6149 (antibody Ab2 in CN104334582, prepared in-house) (antibody, human IgG2, kappa, V domains shown)
VH: EVQLVQSGAEVKKPGESLKISCKGSGYSFTNYWIGWVRQMPGKGLEWMGIIYPGNSDTRFSPSFQGQVTISADKSITTAYLQWSSLKASDTAMYYCARHGTSSDYYGLDVWGQGTTVTVSS
VL: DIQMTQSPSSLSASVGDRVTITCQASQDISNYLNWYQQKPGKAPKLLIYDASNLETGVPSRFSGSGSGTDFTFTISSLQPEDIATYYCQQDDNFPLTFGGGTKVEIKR
notes: Control anti-ST2 antibody
B3: Humanized 31C8-1.1 (antibody, human IgG2, kappa, V domains shown)
VH: EVQLVQSGAEVKKPGATVKISCKASGYIFIDSEMHWVQQAPGKGLEWMGAIDPETGDTVYAEKFQGRVTITADKSSSTAYMELSSLRSEDTAVYYCTGSTTDYYFAYWGQGTLVTVSS
VL: DIQMTQSPSSLSASVGDRVTITCRSSKSLLHSNGIIYLYWYQQKPGKAPKLLIYQLSNLASGVPSRFSSSGSGTDFTLTISSLQPEDFATYYCAQNLELPFTFGQGTKVEIKR
notes: also called hz31C8-1.1; hz31C81-1.1
B4: Humanized 31C8-1.2 (antibody, human IgG2, kappa, V domains shown)
VH: B3 VH with E1Q, E10K, E62K, Q65K
VL: B3 VL
notes: also called hz31C8-1.2; hz31C81-1.2
B5: GSK3772847 (antibody STLM208 in CN104411333, prepared in-house) (antibody, human IgG2, kappa, V domains shown)
VH: EVQLLESGGGLVQPGGSLRLSCAASGFTFSIYDMIWVRQAPGKGLEWVSSIRGEGGGTYYADSVKGRFTISRDNSKNTLYLQMNSLRAEDTAVYYCARDPWSTEGSFFVLDYWGQGTLVTVSS
VL: EIVLTQSPATLSLSPGERATLSCRASQSVDDDLAWYQQKPGQAPRLLIYDASNRATGIPARFSGSGSGTDFTLTISSLEPEDFAVYYCQQYITAPLTFGQGTKVEIKR
notes: Control anti-ST2 antibody

The binders below were run against T1, IL1R9/IL1RAPL2 (Sino biological, …) (assay: ELISA, plate coated with 2 µg/mL receptor).
Method: (§1) The anti-ST2 antibodies were diluted with PBS buffer to a concentration of 1.5 mg/mL. After being treated at 72° C. for 5 min, the samples were assayed by ELISA for their binding activity for an antigen The ELISA procedure is as follows: A 96-well plate was coated with 2 µg/mL hST2-ECD-mFc as the antigen at 100 µL/well and incubated at 4° C. overnight. After the antigen not adsorbed was well washed off, the non-specific binding sites were blocked with a blocking buffer (PBST containing 1% bovine serum albumin). After the plate was washed three times with a washing buffer (PBST, PBS containing 0.05% (v/v) Tween 20), the anti-ST2 antibodies (serially diluted 3-fold from an initial concentration of 1.5 µg/mL to 8 concentrations) were added at 100 µL/well, and the plate was incubated at 37° C. for 1 h. […] After the plate was incubated at room temperature for 5 min, a stop solution (2 N H₂SO₄) was added to stop the reactions. The signals were read at 450 nm using a plate reader (PE, Envision). The data were analyzed using GraphPad Prism5, and the EC₅₀ values were calculated.
(§2) ST2 belongs to the IL1R receptor family. The cross-reactivity of the anti-ST2 antibodies with the IL1R family receptors was determined by ELISA. The IL1R family receptors include IL1R⅟CD121a (Sino biological, 10126-H08H), IL1R2/CD121b (Sino biological, 10111-H08H), IL1R3/IL1RAP (Sino biological, 10121-H08H), IL1R7/IL-18RAcP (Sino biological, 10176-H08H), IL1R8/IL1RAPL1 (Sino biological, 10177-H08H), and IL1R9/IL1RAPL2 (Sino biological, 10156-H08H). ELISA assays were performed using the proteins described above as antigens (2 µg/mL). See Example 13 for the specific ELISA procedure. No binding means that the antibody remains unbound to the antigen when at the highest concentration.

| Binder | binding result |
| --- | --- |
| B1 | no binding |
| B2 | no binding |
| B3 | no binding |
| B4 | no binding |
| B5 | no binding |

The binders below were run against T2, IL1R2/CD121b (Sino biological, …) (assay: ELISA, plate coated with 2 µg/mL receptor).
Method: as §1, §2

| Binder | binding result |
| --- | --- |
| B1 | no binding |
| B2 | no binding |
| B3 | no binding |
| B4 | no binding |

These binders were tested against T3, IL1R1/CD121a (Sino biological, …) (assay: ELISA, plate coated with 2 µg/mL receptor).
Method: as §1, §2

| Binder | binding result |
| --- | --- |
| B1 | no binding |
| B2 | no binding |
| B3 | no binding |
| B4 | no binding |
| B5 | no binding |

What follows are binders tested against T4, IL1R3/IL1RAP (Sino biological, …) (assay: ELISA, plate coated with 2 µg/mL receptor).
Method: as §1, §2

| Binder | binding result |
| --- | --- |
| B1 | no binding |
| B2 | no binding |
| B3 | no binding |
| B4 | no binding |
| B5 | no binding |

What follows are binders tested against T5, IL1R8/IL1RAPL1 (Sino biological, …) (assay: ELISA, plate coated with 2 µg/mL receptor).
Method: as §1, §2

| Binder | binding result |
| --- | --- |
| B1 | no binding |
| B2 | no binding |
| B3 | no binding |
| B4 | no binding |
| B5 | no binding |
